# T1: human ANGPTL8 expressed with C-terminal mouse IgG2a Fc tag (human)
# T1 construct: also called hANGPTL8-mFc; hANGPTL8.mFc
# T1 chain: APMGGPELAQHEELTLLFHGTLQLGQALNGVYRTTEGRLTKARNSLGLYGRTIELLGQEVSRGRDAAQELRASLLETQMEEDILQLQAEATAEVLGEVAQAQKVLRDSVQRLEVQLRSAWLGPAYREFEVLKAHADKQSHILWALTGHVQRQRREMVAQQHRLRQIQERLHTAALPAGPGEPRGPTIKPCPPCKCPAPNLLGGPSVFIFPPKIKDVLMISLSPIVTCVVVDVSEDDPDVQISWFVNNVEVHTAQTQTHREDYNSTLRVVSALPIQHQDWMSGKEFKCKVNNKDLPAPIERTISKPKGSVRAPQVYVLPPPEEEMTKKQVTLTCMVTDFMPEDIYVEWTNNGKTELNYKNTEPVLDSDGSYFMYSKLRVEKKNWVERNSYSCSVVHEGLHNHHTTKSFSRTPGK
# T2: monkey ANGPTL8 expressed with C-terminal mouse IgG2a Fc tag (cynomolgus monkey)
# T2 construct: also called MfANGPTL8-mFc; mfANGPTL8-mFc
# T2 chain: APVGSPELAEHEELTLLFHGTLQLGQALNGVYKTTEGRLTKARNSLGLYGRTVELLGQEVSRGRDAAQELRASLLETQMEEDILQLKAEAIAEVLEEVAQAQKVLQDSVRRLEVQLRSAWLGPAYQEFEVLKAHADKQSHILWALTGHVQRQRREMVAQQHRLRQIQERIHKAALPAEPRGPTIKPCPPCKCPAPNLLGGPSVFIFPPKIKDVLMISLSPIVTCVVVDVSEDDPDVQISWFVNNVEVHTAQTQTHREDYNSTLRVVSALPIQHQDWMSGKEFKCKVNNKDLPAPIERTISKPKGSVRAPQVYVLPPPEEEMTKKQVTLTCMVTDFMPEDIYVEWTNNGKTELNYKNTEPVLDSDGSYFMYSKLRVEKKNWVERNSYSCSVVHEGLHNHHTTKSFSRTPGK
# T3: mouse ANGPTL8 (mouse, UniProt Q8R1L8 16-198, limits assumed)
# T3 sequence (looked up): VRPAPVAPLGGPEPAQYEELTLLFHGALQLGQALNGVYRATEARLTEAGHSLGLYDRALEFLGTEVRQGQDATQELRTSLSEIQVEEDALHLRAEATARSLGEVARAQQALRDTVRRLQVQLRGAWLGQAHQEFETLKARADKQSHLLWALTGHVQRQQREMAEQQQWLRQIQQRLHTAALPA
# T4: human ANGPTL3 (human, UniProt Q9Y5C1 17-460, limits assumed)
# T4 construct: also called hANGPTL3
# T4 sequence: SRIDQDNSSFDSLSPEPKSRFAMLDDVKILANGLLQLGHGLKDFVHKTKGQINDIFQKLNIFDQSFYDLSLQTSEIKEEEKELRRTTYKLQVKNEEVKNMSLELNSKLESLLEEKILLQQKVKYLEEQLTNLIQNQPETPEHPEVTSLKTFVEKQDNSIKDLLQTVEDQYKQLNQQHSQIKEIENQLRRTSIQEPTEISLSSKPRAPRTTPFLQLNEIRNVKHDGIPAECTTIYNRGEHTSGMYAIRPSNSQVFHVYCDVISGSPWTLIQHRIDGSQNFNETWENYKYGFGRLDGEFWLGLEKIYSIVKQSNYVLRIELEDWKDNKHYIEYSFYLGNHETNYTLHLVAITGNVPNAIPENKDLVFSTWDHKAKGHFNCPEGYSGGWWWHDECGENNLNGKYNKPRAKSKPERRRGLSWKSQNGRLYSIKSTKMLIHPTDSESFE
# T5: mouse ANGPTL3 (mouse, UniProt Q9R182 17-455, limits assumed)
# T5 sequence (looked up): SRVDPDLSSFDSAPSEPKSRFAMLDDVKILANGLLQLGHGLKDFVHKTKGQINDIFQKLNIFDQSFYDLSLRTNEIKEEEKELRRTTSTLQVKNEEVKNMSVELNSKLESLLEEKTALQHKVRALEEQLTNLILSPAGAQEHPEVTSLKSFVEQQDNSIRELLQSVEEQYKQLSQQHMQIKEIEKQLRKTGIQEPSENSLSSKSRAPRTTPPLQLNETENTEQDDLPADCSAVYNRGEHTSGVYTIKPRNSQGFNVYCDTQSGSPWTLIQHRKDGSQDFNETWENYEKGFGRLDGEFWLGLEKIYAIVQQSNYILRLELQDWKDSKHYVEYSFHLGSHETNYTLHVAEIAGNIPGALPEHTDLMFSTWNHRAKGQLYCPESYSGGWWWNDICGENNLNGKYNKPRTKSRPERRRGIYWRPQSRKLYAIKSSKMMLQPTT
# T6: human ANGPTL4 (human, UniProt Q9BY76 26-406, limits assumed)
# T6 construct: also called hANGPTL4
# T6 sequence: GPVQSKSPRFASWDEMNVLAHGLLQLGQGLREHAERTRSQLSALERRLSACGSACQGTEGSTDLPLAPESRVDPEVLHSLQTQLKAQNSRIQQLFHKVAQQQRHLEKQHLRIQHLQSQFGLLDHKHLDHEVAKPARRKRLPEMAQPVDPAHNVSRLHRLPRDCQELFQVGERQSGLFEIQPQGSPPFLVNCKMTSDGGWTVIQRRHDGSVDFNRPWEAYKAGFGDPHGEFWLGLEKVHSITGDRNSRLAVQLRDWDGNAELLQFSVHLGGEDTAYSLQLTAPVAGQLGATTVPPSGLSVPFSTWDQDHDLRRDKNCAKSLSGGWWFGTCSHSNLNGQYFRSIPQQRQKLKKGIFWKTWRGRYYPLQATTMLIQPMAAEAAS
# T7: mouse ANGPTL4 (mouse, UniProt Q9Z1P8 24-410, limits assumed)
# T7 sequence (looked up): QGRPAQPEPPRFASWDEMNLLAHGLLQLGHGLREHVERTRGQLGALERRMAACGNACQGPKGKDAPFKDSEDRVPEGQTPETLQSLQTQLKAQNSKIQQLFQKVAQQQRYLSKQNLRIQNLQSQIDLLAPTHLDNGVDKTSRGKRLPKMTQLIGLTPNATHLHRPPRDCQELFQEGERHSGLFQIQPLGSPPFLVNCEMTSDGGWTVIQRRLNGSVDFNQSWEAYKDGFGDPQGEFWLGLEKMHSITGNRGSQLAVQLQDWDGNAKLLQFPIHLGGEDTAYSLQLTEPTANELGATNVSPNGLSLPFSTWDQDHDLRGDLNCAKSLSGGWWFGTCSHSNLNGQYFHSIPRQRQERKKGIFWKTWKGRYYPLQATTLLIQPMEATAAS
# Legend:
# [1] = biological target: T1, human ANGPTL8 expressed with C-terminal …; assay: BLI (Octet HTX), hANGPTL8-mFc captured on AMC sensor
# Experimental: (§1) Binding of ANGPTL8 antibodies to human and monkey ANGPTL8 proteins was investigated using Bio-layer Interferometry with an Octet HTX biosensor platform (ForteBio, A Division of Pall Life Sciences). All experiments were performed at 25° C. in 10 mM HEPES pH 7.4, 150 mM NaCl, 0.05% v/v Surfactant Tween-20, and 1 mg/ml BSA with the reaction multiwell plate agitated at 1000 rpm. Approximately 1.6 nm of human ANGPTL8 produced with a C-terminal mouse IgG2a Fc tag (hANGPTL8-mFc; SEQ ID NO: 340) or cynomolgus monkey ANGPTL8 produced with a C-terminal mouse IgG2a Fc tag (MfANGPTL8-mFc; SEQ ID NO: 341) was captured onto anti-mFc (AMC) Octet biosensors by submerging the sensors into wells containing 10 μg/mL of each protein for 4 minutes. Under the same conditions a negative control protein with the same mFc tag (hLDLR-mFc) was also coupled to the AMC sensor. All four sensors, […] and one blank, were then submerged into wells containing 100 nM of different ANGPTL8 monoclonal antibodies or an isotype control for 4 minutes.
# [2] = biological target: T2, monkey ANGPTL8 expressed with …; assay: BLI (Octet HTX), MfANGPTL8-mFc captured on AMC sensor
# Experimental: as §1
# [3] = biological target: T8, hLDLR-mFc (negative control protein with the same mFc tag) (human, UniProt P01130 22-788); assay: BLI (Octet HTX), hLDLR-mFc captured on AMC sensor
# T8 construct: also called Irrelevant control; not shown: mFc tag ('the same mFc tag', mouse IgG2a Fc)
# T8 sequence (P01130 22-788): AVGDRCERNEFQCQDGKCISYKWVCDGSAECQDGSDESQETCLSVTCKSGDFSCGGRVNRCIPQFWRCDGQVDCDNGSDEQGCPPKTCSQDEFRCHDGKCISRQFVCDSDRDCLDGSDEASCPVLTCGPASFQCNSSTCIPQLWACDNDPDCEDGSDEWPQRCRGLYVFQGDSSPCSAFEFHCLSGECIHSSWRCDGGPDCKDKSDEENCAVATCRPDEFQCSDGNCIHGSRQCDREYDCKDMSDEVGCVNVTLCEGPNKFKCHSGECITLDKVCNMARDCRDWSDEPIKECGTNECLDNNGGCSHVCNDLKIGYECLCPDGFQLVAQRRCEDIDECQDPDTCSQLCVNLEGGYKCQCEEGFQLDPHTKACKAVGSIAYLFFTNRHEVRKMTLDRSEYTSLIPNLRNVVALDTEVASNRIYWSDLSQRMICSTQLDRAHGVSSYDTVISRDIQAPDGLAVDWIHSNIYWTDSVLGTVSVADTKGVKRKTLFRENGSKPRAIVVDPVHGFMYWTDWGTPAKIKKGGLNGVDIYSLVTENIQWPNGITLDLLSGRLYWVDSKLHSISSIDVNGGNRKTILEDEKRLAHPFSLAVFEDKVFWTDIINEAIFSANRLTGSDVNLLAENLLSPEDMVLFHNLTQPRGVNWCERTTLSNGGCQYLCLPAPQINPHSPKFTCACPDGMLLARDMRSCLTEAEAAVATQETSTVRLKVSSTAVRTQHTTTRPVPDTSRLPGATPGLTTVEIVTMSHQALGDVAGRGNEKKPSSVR
# Experimental: as §1
# [4] = biological target: T3, mouse ANGPTL8; assay: SPR
# [5] = biological target: T4, human ANGPTL3; assay: SPR
# [6] = biological target: T5, mouse ANGPTL3; assay: SPR
# [7] = biological target: T6, human ANGPTL4; assay: SPR
# [8] = biological target: T7, mouse ANGPTL4; assay: SPR
Binder,binding result [1],binding result [2],binding result [3],binding result [4],binding result [5],binding result [6],binding result [7],binding result [8]
"H4H15316P (antibody, human IgG4, V domains shown, human IgG4 Fc (H4H prefix)) VH: EVQLVESGGGLVQPGRSLRLSCAASGFIFDDYDMHWVRQAPGKGLEWVSGISWNSGSKGYADSVKGRFTISRDNAKNSLYLQMNSLRAEDTALYYCTKGPWDYFDYWGQGTLVTVSS VL: not shown",no binding (tested: background 0.03 nm at 100 nM mAb),no binding (tested: background 0.03 nm at 100 nM mAb),no binding (tested: 0.03 nm at 100 nM mAb),–,–,–,–,–
"H4H15341P (antibody, human IgG4, V domains shown, also called anti-hANGPTL8) VH: EVQLVESGGGLVQPGGSLRLSCAASGFTFNNHEMNWVRQAPGKGLEWVSYISSSGNTVTYADFLKGRFTISRDNAKNSLFLQMNSLRDEDTAVYYCARDHLSGTSPLSYWGQGTLVTVSS VL: DIQMTQSPSSLSASVGDRVTITCQASQDINNYLNWFQQKPGKAPKLLIFDASNLETGVPSRFSGSGSGTDFTFTISSLQPEDIATYFCQQYENLPYTFGQGTKLEIK",–,–,no binding (tested: 0.03 nm at 100 nM mAb),no binding,no binding,no binding,no binding,no binding

# From US20180134781A1 (Regeneron, published 2018)
